Measured values published in the supplement of paper PMC9170038.

How the values were obtained:
[1] = tested on: MS2 coat protein; experiment: apparent KD of MS2 coat protein, switch ON state; designed switch direction (-1 OFF switch, 1 ON switch): 1; higher = weaker reporter binding; conditions: FMN input: 0 or 200 uM; Eterna round: R93 (includes R88 designs)
Procedure, shortened: (§1)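 Titrations with SNAP-549-labelled MS2 coat protein ran in twofold steps from 0.7 or 1.5 nM to 3 µM, each step taking 0.8–1.5 h at the start and 10–20 min toward the end. The targets were designed RNA switches transcribed on-chip from Illumina sequencing clusters, held in 100 mM Tris-HCl pH 7.5, 80 mM KCl, 4 mM MgCl2, without or with constant ligand. Apparent KD was taken per design as the median of normalised cluster binding-curve fits.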

[2] = tested on: MS2 coat protein; experiment: apparent KD of MS2 coat protein, switch OFF state (with FMN for OFF switches, without FMN for ON switches); designed switch direction (-1 OFF switch, 1 ON switch): 1; higher = weaker reporter binding; conditions: FMN input: 0 or 200 uM; Eterna round: R93 (includes R88 designs)
Procedure, shortened: as §1

Sequence	apparent KD of MS2 coat protein [1] [nM]	apparent KD of MS2 coat protein [2] [nM]
AAAGUACAUGAGGAUCACCCAUGUUGGAACAAAGCAGGAUAUGUACAAAAGGAAAUAAAUACAGAAGGGCUAAGAA [Same State #2]	20	32.9
AAAUAAAGGACUGAGGAUAUACCACAUGAAACAUGAGGAUCACCCAUGUUGAAAAACAAAGGGUGGUAGAAGGUAGUCCACAAAC [Same State 2.5a ( so lets mod hyphema)]	17.2	29.3
AAAUAAAUGACUAAGGAUAUCUCUGAGAAAACAUGAGGAUCACCCAUGUAAUAAUAAAAAGGGUGAGAGAAGGUAGUCAACAAAC [Same State 2.1 (Pariah 4 -changed stack on 9nt hairpin)]	18	68
AAAUAUAAAAGAUAGGAUAUACUAAAAUAAACAUGAGGAUCACCCAUGUAAAAAAAAAAACUCAUGUAGAAGGAUCAAAUAUAAA [ss2 8th]	33.4	38.1
AACAAUCUAUCUGAGGAUAUAUGUCAAAAGACAUGAGGAUCACCCAUGUAAAAACAUGAAAAAUAAUAGAAGGCAGAUAGAUUGA [SS2: 1140]	59.9	52.4
AACAAUCUAUCUGAGGAUAUCAAGUCAAAGACAUGAGGAUCACCCAUGUUGCAGGAAACUGCUCUUGAGAAGGCAGAUAGAUUGA [SS2: 1130]	9.84	13.5
AACAAUCUAUCUGAGGAUAUGUGUCGAAAGACAUGAGGAUCACCCAUGUAAAAACAUGAAAAAUCACAGAAGGCAGAUAGAUUGA [SS2: 1144]	59.3	144
AACGUGACGACAUAGGAUAUGUACACACGUACAUGAGGAUCACCCAUGUGACUAGUAAUCGUGUGGCAGAAGGGUGAAGUCUCGA [Anzasousra]	21.4	31.4
AAGAAACAUGAGGAUCACCCAUGUAAAAUAAACACAGGAUAUGCGAAAAGAAACAAAGAAGCAGAAGGGUGAAGAA [Mat - Same State 1 - Tesla mod - 56]	16.9	36.2
AAGAAACAUGAGGAUCACCCAUGUAAGAUAAACACAGGAUAUGCGAAAAGAACAAAAGAAGCAGAAGGGUGAAGAA [Mat - Same State 1 - Tesla mod - D145]	25.4	42.4
AAGAAACAUGAGGAUCACCCAUGUAAGAUAAACACAGGAUAUGCGAAAGAAAUAAAUAAAGCAGAAGGGUGAAGAA [Mat - Same State 1 - Tesla mod - D148]	22.4	44.5
AAGAAACAUGAGGAUCACCCAUGUAGAAAUAUGGGAGGAUAUACGAAGACGAAAGUCGAAGUAGAAGGCCUAAGAA [Mat - Same State 1 - Meechl mod - D131]	15.1	71.9
AAGAAACAUGAGGAUCACCCAUGUCGAGAGAGACGAGGAUAUCUGAAUCGAUUAGAUUACGGAGAAGGCGUGAAAA [Same State 1.2 (Same State of Confusion2 - minimal change )]	18.3	30.4
AAGAAACAUGAGGAUCACCCAUGUGAUAAUAUGGGAGGAUAUACAAAGACGAAAGUCGAAGUAGAAGGCCUAUGAA [Garnet 43]	36.8	62
AAUAAACAUGAGGAUCACCCAUGUGAAAAUAUGGGAGGAUAUAGGAAAAAAAAAAAAAAACUAGAAGGCCCAAAAA [SS! 1 MT 12]	75.3	138
AAUAACUAUAACUAGGAUAUCGGAAAUAAGACAUGAGGAUCACCCAUGUAAUAAGACAAAAUAUACGAGAAGGAGUAGGGUGAAA [JR_SS002_Sub012]	61.2	53.2
AAUAGACAUGAGGAUCACCCAUGUAGAAUUAUGGGAGGAUAUACAAAGACGAGAGUCAGAGUAGAAGGCCUAGGAC [salish99-ss1-151]	20.7	54
AAUAUAUUAAGUGAGGAUAUCAAGAAAAAAACAUGAGGAUCACCCAUGUGGGAAACACAAUAGGGUGAGAAGGUACUUAAUAUAU [Samwise Clockwise 18 - Jieux - Same State 2]	10200	8.08
AAUAUAUUAUUUAAGGAUAUCAUAGGAAACACAUGAGGAUCACCCAUGUGGGAGACUUGGACGGGUGAGAAGGUGGAUAAUAUAU [Samwise Clockwise 37 - Jieux - Same State 2]	19.2	20.7
AAUCCAACUAGUCAGGAUAUCAGGCGUAAGACAUGAGGAUCACCCAUGUACUUAGUACAAGUAACUGAGAAGGGACAGGGUGACC [JR_SS002_Sub409]	75.4	75.5
ACAAAACAUGAGGAUCACCCAUGUCAAGCUAAUCAAGGAUAUGGGAGCGGUCCGGUGCGAUCAGAAGGUGAUUAGA [Gecelear]	99	53.2

Sequence	apparent KD of MS2 coat protein [1] [nM]	apparent KD of MS2 coat protein [2] [nM]
ACAAAACAUGAGGAUCACCCAUGUCAGAAAUGGCAAGGAUAUAGAAAACAAAAACAAAAACUAGAAGGUGCAAAAC [Meechl SS1 R2 m3]	84.8	154
AGAAAAUAUGGGUAGGAUAUAUAAAGAGAAACAUGAGGAUCACCCAUGUAAAGACGAGAGUCAAAAUAGAAGGACUAAAGAAAGAA [Meechl MS2 SS2 2]	86.2	151
AGAAAUAAAAGAGAGGAUAUCCAAAAGAAAACAUGAGGAUCACCCAUGUAGACGAAAGUCAAAUGGGAGAAGGCUCAAAAUAAAG [80% More Helter Skelter 2 + Hairpin]	61.4	98.7
AGAAAUAAAAUGGAGGAUAUCCAAAAGAAAACAUGAGGAUCACCCAUGUAAAAGAAAAUAAAAUGGGAGAAGGCCAAAAAUAAAG	23	47.2
AGAAGACAUGAGGAUCACCCAUGUGGGAAUAUGGGAGGAUAUACAAAGACGAGAGUCAGAGUAGAAGGCCUAGGAA [salish99-SS1-091(!)]	33	132
AGAAGACAUGAGGAUCACCCAUGUGGGAAUAUGGGAGGAUAUACAAAGACGAGAGUCAGAGUAGAAGGCCUAGGCC [salish99-ss1-110]	49.8	131
AGCCGCACUAUACAGGAUAUCACAAUAUCGACAUGAGGAUCACCCAUGUGACUGGCACCAGUCGGUGAGAAGGGUGAAGUGCGGC [Raarati]	90.6	421
AGGAAACAUGAGGAUCACCCAUGUAAAAAAGUGGGAGGAUAUACUAGAAGAAACAAAAUAGUAGAAGGCCUAAAAA [75%, Ex sub1, 32]	9.99	108
AGGAAACAUGAGGAUCACCCAUGUAAAAAUAUGGAAGGAUAUGGAAACACGAAAGUGAAACCAGAAGGUCCGAAAA [77%, Mat - Mod of Eli, 19]	13.1	23.1
AGGAAACAUGAGGAUCACCCAUGUAAAAAUAUGGGAGGAUAUGCGAAAAGAAACAAAGAAGCAGAAGGCCUAAGAA [75%, Ex5 sub 1, 7]	11.9	155
AGGAAACAUGAGGAUCACCCAUGUAGAAAUAUGGGAGGAUAUCGGAAUAAAAUAAAGAAACGAGAAGGCCUAAAAG [59%, Flamingo, 3]	38.8	324
AGGAGACAUGAGGAUCACCCAUGUGAGAAGAGGCGAGGAUAUCGAAAAAAAAAAAAAAAACGAGAAGGCGCGAGAA [SameState1]	35.4	58.2
AGGAGACAUGAGGAUCACCCAUGUGAGAAGAGGCGAGGAUAUCGAAAAAAAAAAAAAAAACGAGAAGGCGCGAGAA [salish99-SS1-002]	35.4	58.2
AGGAGACAUGAGGAUCACCCAUGUGAGAAGAGGCGAGGAUAUCGAAAGAAAGAAGAGAAACGAGAAGGCGCGAGUU [salish99-SS1-022]	25.5	33.8
AGGCAACAUGAGGAUCACCCAUGUCGCAACAAUCAAGGAUAUGGGAGAAAUAAGAAAAUACCAGAAGGUGAAAUAA [Telelabe]	60.7	92
AUAAAAACGUAUGAGGAUAUCCAAAAUAAAACAUGAGGAUCACCCAUGUGAAUAAAAUAACAAUGGGAGAAGGCAUACGUAUCAU [SS 2 M 53]	12.5	28.8
AUAAAACAUGAGGAUCACCCAUGUAGAAAUAUGGGAGGAUAUACAAAGACGAAAGUCGAAGUAGAAGGCCUAAAAG [Mat - Same State 1 - Meechl mod - D117]	27.4	68.3
AUAAAACAUGAGGAUCACCCAUGUAGAAAUAUGGGAGGAUAUACUAGAUCGAAAGAUCUAGUAGAAGGCCUUAAAG [JL Mod of Eli 3]	31.7	52.6
AUAAAAUAAAAUGAGGAUAUCUAUAAUAAAACAUGAGGAUCACCCAUGUUUAAACAAAGAUCAUGGGAGAAGGCAUAAAAUAAAU [SS2 M 40]	15.9	14
AUAAAAUACUGUGAGGAUAUCCAUAAUAAAACAUGAGGAUCACCCAUGUGUAGAUAAUAAUAAUGGGAGAAGGCACAUAAUAAUA [Mat - Same state - Mayanna Mod - D101]	15.7	41
AUAAAUAAAAGAGAGGAUAUCCAAAAGAAAACAUGAGGAUCACCCAUGUGAAAGAAAAUAAAAUGGGAGAAGGCUCACAAUAAUA [Topaz 32]	23	26
